Measured values taken from patent US20230203461A1, “BETA-ETHERASES FOR LIGNIN DEPOLYMERISATION” (The University of York, priority 2020, published 2023).

What was measured:
tyrosinase = conditions: literature statement; cited from earlier work
β-etherase = experiment: Phenol oxidase assay (substrate specificity) with β-etherase; type: biochemical, P. putredinis NO1; conditions: 1 mM substrate, 50 mM Tris pH 8.5, room temperature
Method: Specificity was investigated by incubating 1 mM of each substrate of interest with the enzyme in 100 µL Tris pH 8.5 buffer at room temperature. Activity was determined by monitoring the change in Ultraviolet-Visible absorbance spectra (220 - 750 nm) of aliquots using a NanoDrop 8000 Microvolume UV-Vis spectrophotometer (Thermo Scientific). Scans were performed at regular intervals over 2 h.

[1] = 2D HSQC NMR of enzyme lignins from treated wheat; conditions: HSQC volume-integrals, S + G + H = 100% basis; control nearly 12%
Method: Enzyme lignins, representing essentially all of the lignin in the sample, were prepared following ball-milling of the cell wall isolate as previously described.(75-77, 78)
2D NMR of enzyme lignins (EL) in 4:1 v/v DMSO-d6:pyridine-d5 were acquired on a Bruker Biospin (Billerica, MA) Avance 700 MHz spectrometer equipped with a 5-mm QCI ^1H/^31P/^13 C/^15 N QCI cryoprobe with inverse geometry (proton coils closest to the sample), as described previously.(76,77) Volume-integration of contours in HSQC plots used TopSpin 4.07 (Mac version) software, and no correction factors were used. The data represent volume-integrals only, and data are presented on an S + G + H = 100% basis (FIG. 17); pCA, and tricin T units are always terminal and are, therefore, likely overestimated.(77) Data assignments here were made by comparison with published data from other samples from our lab, including in the various tricin-related papers.(71-74, 79, 80)

[2] = Saccharification after β-etherase pretreatment, sugarcane bagasse (HPAEC); type: biochemical; conditions: 16 h β-etherase pretreatment, then commercial cellulases
Method: (§1) For saccharification reactions, biomass pretreated with β-etherase was incubated with 1.2 µg/mL enzyme cocktail (4:1 Celluclast: novo 188 (Novozymes)) in 50 mM sodium acetate at pH 4.5 and incubated overnight at 37-40° C. with shaking. This was performed alongside a control reaction with buffer only. Solids were removed by centrifugation, and residual protein was precipitated with 80% ethanol. The supernatant, containing mono- and oligosaccharides, was dried with a centrifugal evaporator before samples were resuspended in ultra-pure water and filtered through a 0.2 µm polytetrafluoroethylene (PTFE) filter. Five replicates from each sample were investigated, and carbohydrate composition was analyzed by high-performance anion-exchange chromatography (HPAEC).
High-performance anion-exchange chromatography was used to analyze monosaccharide release after saccharification. Briefly, 5 µL of samples or standards were injected on a CarboPac PA20 3 × 150 mm analytical column via a CarboPac PA20 3×0 mm guard column using Chromeleon 6.8 Chromatography Data Systems software (Dionex). Sugars were separated at a flow rate of 0.4-0.5 mL min^-1 at a temperature of 25° C. as follows: after equilibration of the column with 100% H2O, samples were separated in a linear gradient of 100% H2O to 99%-1% of H2O-0.2 M NaOH for 5 min, then constant for 10 min, followed by a linear gradient to 47.5%-22.5%-30% of H2O-0.2 M NaOH-0.5 M NaOAc/0.1 M NaOH in 7 min and then kept constant for 15 min. After washing the column with 0.2 M NaOH for 8 min it was re-equilibrated with 100% H2O for 10 min before the injection of the next sample. Carbohydrates were detected by ICS-3000 PAD system with an electrochemical gold electrode, identified by comparison with retention times of external standards (arabinose, fucose, galactose, glucose, glucuronic acid, mannose, rhamnose, and xylose) and quantified through the integration of these known standards.

[3] = Saccharification after β-etherase pretreatment, rice straw (HPAEC); type: biochemical; conditions: 16 h β-etherase pretreatment, then commercial cellulases
Method: as §1
(§2) High-performance anion-exchange chromatography was used to analyze monosaccharide release after saccharification. Briefly, 5 µL of samples or standards were injected on a CarboPac PA20 3 × 150 mm analytical column via a CarboPac PA20 3×0 mm guard column using Chromeleon 6.8 Chromatography Data Systems software (Dionex). […] Carbohydrates were detected by ICS-3000 PAD system with an electrochemical gold electrode, identified by comparison with retention times of external standards (arabinose, fucose, galactose, glucose, glucuronic acid, mannose, rhamnose, and xylose) and quantified through the integration of these known standards.

[4] = Release of tricin and lignin units from wheat straw (HPLC); type: biochemical; conditions: 16 h, pH 8.5, 30° C.
Method: Wheat straw was ground to <1 mm using a cyclone mill (Retsch) and washed several times with 50 mM Tris pH 8 to remove residual surface sugars. […] Reactions were incubated overnight at 30° C. with shaking. Control reactions were performed using wheat straw incubated with boiled β-etherase or with buffer only. Tricin was extracted based upon Karambelkar.^70 Briefly, 1 mL of ethyl acetate was added to 100 µL of the reaction supernatant. This was homogenized before being centrifuged for 5 min at 13,000 rpm. The ethyl acetate layer was transferred into new tubes and evaporated using a centrifugal evaporator at 55° C. before being resuspended in 100 µL 50% H2O, 50% acetonitrile. This was analyzed with a Waters 2996 photodiode array detector Separations Module HPLC system, column used was C18-5 µM preparative column (4.6 × 250 mm, Waters, X-Bridge, Made in Ireland). The mobile phase was 0.1% acetic acid in water (A), and methanol (B) and a linear gradient was used; 95% A (5 min), 70% A (25 min), 0% A (30 min), 95% A (5 min), the flow rate was 1.0 mL/min. After identification through comparisons with authentic standards, based on retention time and UV spectrum, peaks were manually collected and the mass confirmed with mass spectroscopy.

[5] = Release of products from sugarcane bagasse (HPLC); type: biochemical; conditions: 16 h, pH 8.5, 30° C.
[6] = Fluorescence assay for β-etherase (4MU release from GGβ4MU); type: biochemical
Method: Enzyme activity was measured in 1 mL reaction containing 10 µL 4MU/GGβ4MU (synthetic fluorescent substrate 10 mM) and appropriate concentration of pure protein in 50 mM Tris-HCI, 100 mM NaCl, pH 8.5, 5 mM CuSO4. The reaction was incubated at 30° C. for 1 h. Formation of 4-methylumbelliferone (4MU) was monitored using an RF-1500 fluorometric analyzer. After 0 h and 1 h of incubation 100 µL of the reaction mixture was taken and added to 50 µL of 100 mM glycine-NaOH buffer (pH 10.0). One unit of the enzyme was defined as the amount that released 1 nmol of 4 MU/h from the substrate. Five replicate were taken for each sample, and control reactions of boiled enzyme and wheat straw treated with buffer only were also performed.
The effect of pH and temperature on enzyme activity was investigated by varying the pH of the reaction mixtures using 50 mM Tris-HCI buffer from pH 7.0 to 9.5, 50 mM glycine-NaOH buffer at pH range 9.0 to 10.5 and 50 mM Na2HPO4-NaOH buffer at pH range 10.5 to 12. The optimum temperature of enzyme activity was determined at various temperatures ranging from 20° C. to 70° C. Assays were performed as described in the previous section.

[7] = Release of products from rice straw (HPLC); type: biochemical; conditions: 16 h, pH 8.5, 30° C.
[8] = Saccharification after β-etherase pretreatment, wheat straw (HPAEC); type: biochemical; conditions: 16 h β-etherase pretreatment, then commercial cellulases
Method: as §1, §2

[9] = purification step: Culture filrate
[10] = purification step: Q (anion-exchange)
[11] = purification step: S.E (size-exclusion)

## O=C(O)/C=C/c1ccc(O)cc1 [p-coumaric acid]
tyrosinase
  type of tyrosinase inhibition: mixed-type inhibition effect

## N[C@@H](Cc1ccc(O)c(O)c1)C(=O)O [L-Dopa, 3,4-dihydroxy-L-phenylalanine]
β-etherase
  activity of the β-etherase against the substrate: did not display activity

## O=c1c(O)c(-c2ccc(O)c(O)c2)oc2cc(O)cc(O)c12 [Quercetin]
tyrosinase
  tyrosinase inhibition: known to be tyrosinase inhibitors
β-etherase
  activity of the β-etherase against the substrate: showed activity

## N[C@@H](Cc1ccc(O)cc1)C(=O)O [L-tyrosine]
β-etherase
  activity of the β-etherase against the substrate: did not display activity

## COc1cc(-c2cc(=O)c3c(O)cc(O)cc3o2)cc(OC)c1O [Tricin, 5,7-dihydroxy-2-(4-hydroxy-3,5-dimethoxyphenyl)-4H-chromen-4-one]
tyrosinase
  type of tyrosinase inhibition: binds non-competitively

## COc1cc(C(=O)O)ccc1O [Vanillic acid]
tyrosinase
  tyrosinase inhibition: known to be tyrosinase inhibitors
β-etherase
  activity of the β-etherase against the substrate: showed activity

## O=C(O)c1ccc(O)cc1 [4-Hydroxybenzoic acid]
tyrosinase
  tyrosinase inhibition: known to be tyrosinase inhibitors
β-etherase
  activity of the β-etherase against the substrate: showed activity

B1: β-etherase: copper-containing extracellular β-etherase of Parascedosporium putredinis NO1 (c2092), independent of NAD+ and glutathione, expressed recombinantly in E. coli (protein, listed as Parascedosporium putredinis)
chain: MPSAKRLLGLLLAATAAVGVAAQEPALTEDDFSIPEIEGGDALAQLAQLAADSSQETALRMAKRGLNSGCSPSQIKVRREWRTLTSAQRKQYIASVKCLQTKPSFFDPNIIPAAKSLFDDFVGVHVFQTGSIHLTATFLTWHRYFVYTYETKLREECGYTGPLPYWEWGLDVNNPNASPVFDGSDTSLSGNGAFFAHEGIQMVQPINGNILKLPPGNGGGCVTKGPFKDMKVHFGTIILPVYGQPILSGVENPIADNERCLKRDLNAGIAKRFTSFLNSTSVILKNNNIEMFQAHLQGDDRYVLNQLGVHGGGHYTIGGDPGGDPFISPGDPAFYLHHAQIDRIYWIWQMLDFKNRQGVHGTATLQNNPPSANVTVEDTIDLSPLAPPVKIKDLMNTVGGSPLCYIYL
[1]
  relative tricin ether level in the lignin after treatment: about 8.5%
[2]
  increase in arabinose after saccharification vs untreated control: 23 fold
  increase in glucose after saccharification vs untreated control: 2 fold
  increase in xylose after saccharification vs untreated control: 5 fold
[3]
  improvement in saccharification: no improvement in saccharification
[4]
  p-coumaric acid, vanillin and p-hydroxybenzaldehyde in reaction supernatant of wheat straw: not enriched
  tricin in reaction supernatant of wheat straw vs buffer alone: significantly higher concentration of tricin
[5]
  p-coumaric acid release from sugarcane bagasse: significantly enriched
  tricin released from sugarcane bagasse compared to wheat straw: smaller amount of tricin was released
[6]; GGβ4MU assay, 20° C. to 70° C. tested
  temperature of maximum activity: 60 °C
[6]; GGβ4MU assay, pH 7.0 to 12 tested
  pH of maximum activity: 10
[6]; [9]
  Activity (mU) (nmol/mg/hr): 7500 mU
  Specific (U/mg): 7.32 U/mg
[6]; [10]
  Activity (mU) (nmol/mg/hr): 2600 mU
  Specific (U/mg): 88 U/mg
[6]; [11]
  Activity (mU) (nmol/mg/hr): 1950 mU
  Specific (U/mg): 139 U/mg
[6]; recombinant purified protein from E. coli
  β-etherase activity (fluorescence released after incubation with GGβ4MU): confirmed
[7]
  product release from rice straw: little difference in product release
[8]
  increase in glucose release after saccharification: 1.2 fold
